Measurements reported in paper PMC3883112 (Cell reports, 2013).

Molecular target: T1, GST-Pol32 (full length Pol32) (yeast (S. cerevisiae), UniProt P47110 1-350)
T1 sequence (looked up): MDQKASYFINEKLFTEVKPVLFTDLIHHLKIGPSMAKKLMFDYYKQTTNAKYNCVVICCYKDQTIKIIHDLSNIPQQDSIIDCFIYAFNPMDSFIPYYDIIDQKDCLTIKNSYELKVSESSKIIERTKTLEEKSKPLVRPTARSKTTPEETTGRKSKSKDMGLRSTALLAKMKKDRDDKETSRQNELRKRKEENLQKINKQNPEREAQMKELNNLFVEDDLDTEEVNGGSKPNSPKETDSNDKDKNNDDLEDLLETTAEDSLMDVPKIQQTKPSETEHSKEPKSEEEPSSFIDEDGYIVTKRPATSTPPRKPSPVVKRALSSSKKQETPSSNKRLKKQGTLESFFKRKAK
Assay: pull-down

- binding result: binds
B1: Rev7 used in the GST pull-down (natural protein, yeast (S. cerevisiae), UniProt P38927 1-245, looked up)
chain: MNRWVEKWLRVYLKCYINLILFYRNVYPPQSFDYTTYQSFNLPQFVPINRHPALIDYIEELILDVLSKLTHVYRFSICIINKKNDLCIEKYVLDFSELQHVDKDDQIITETEVFDEFRSSLNSLIMHLEKLPKVNDDTITFEAVINAIELELGHKLDRNRRVDSLEEKAEIERDSNWVKCQEDENLPDNNGFQPPKIKLTSLVGSDVGPLIIHQFSEKLISGDDKILNGVYSQYEEGESIFGSLF
